Measurements as given in patent US20240084039A1.

Columns and labels:
[1] = target: pre-existing anti-drug antibodies (ADA) present in human sera; assay: ELISA pre-existing ADA binding assay, confirmatory setup, test molecule coated, 20 human sera (second row for PRO2230)
[2] = target: pre-existing anti-drug antibodies (ADA) present in human sera; assay: ELISA pre-existing ADA binding assay, confirmatory setup, test molecule coated, 20 human sera

B1: PRO2230 (scFv)
scFv: DIQMTQSPASLSASVGDRVTITCQASQSIGTYLAWYQQKPGKPPKLLIYRAFILASGVPSRFSGSGSGTDFTLTISSLQPEDFATYYCQSNFYSDSTTIGPNAFGTGTKVTVLGGGGGSGGGGSGGGGSGGGGSEVQLVESGGGLVQPGGSLRLSCAASGFSFNSDYWIYWVRQAPGKGLEWIASIYGGSSGNTQYASWAQGRFTISRDNSKNTVYLQMNSLRAEDTAVYFCARGYVDYGGATDLWGQGTLVTVSS
[1]
  % positives of total tested serum samples: 76%
  No of positive serum samples above 30% CCP (serum samples): 15
[2]
  % positives of total tested serum samples: 90%
  No of positive serum samples above 30% CCP (serum samples): 18
